Test results published in paper PMC6433865, “The cochaperone CHIP marks Hsp70- and Hsp90-bound substrates for degradation through a very flexible mechanism” (Scientific Reports, 2019).

Tests used:
[1] = molecular target: T1, Hsp90 (human, UniProt P07900 1-732); assay: negative-stain electron microscopy, 3D reconstruction; complexes stabilised and isolated by GraFix (10-30% glycerol gradient, 0.15% glutaraldehyde), stained with 2% uranyl acetate, JEOL JEM1010 at 80 kV; atomic structures docked into 19-26 Å volumes; settings: both partners purified
T1 construct: Homodimer; also called hHsp90; source: E. coli, induced at 30 °C (4 h), purified (Ni-NTA, Superdex 200)

[2] = molecular target: T2, Hsp70 (human (by the printed Entrez Gene code), UniProt P0DMV8 1-641); assay: cryo-EM structure; ternary complexes after GraFix, vitrified; Titan Krios 300 kV (Hsp70:p53-TMGST:CHIP, 15 Å) or Talos Arctica 200 kV (Hsp90:p53-TMGST:CHIP, 13 Å); atomic structures docked; settings: both partners purified
T2 construct: Hsp70, Entrez Gene code 3303, cloned in pQE-30; Removal of the His tag is told only for CHIP, UbcH5a, Bag1s and p53DBD, not for Hsp70; source: E. coli, expressed at 16 °C overnight, purified (Ni-NTA, Superdex 200)
T2 sequence (P0DMV8 whole entry): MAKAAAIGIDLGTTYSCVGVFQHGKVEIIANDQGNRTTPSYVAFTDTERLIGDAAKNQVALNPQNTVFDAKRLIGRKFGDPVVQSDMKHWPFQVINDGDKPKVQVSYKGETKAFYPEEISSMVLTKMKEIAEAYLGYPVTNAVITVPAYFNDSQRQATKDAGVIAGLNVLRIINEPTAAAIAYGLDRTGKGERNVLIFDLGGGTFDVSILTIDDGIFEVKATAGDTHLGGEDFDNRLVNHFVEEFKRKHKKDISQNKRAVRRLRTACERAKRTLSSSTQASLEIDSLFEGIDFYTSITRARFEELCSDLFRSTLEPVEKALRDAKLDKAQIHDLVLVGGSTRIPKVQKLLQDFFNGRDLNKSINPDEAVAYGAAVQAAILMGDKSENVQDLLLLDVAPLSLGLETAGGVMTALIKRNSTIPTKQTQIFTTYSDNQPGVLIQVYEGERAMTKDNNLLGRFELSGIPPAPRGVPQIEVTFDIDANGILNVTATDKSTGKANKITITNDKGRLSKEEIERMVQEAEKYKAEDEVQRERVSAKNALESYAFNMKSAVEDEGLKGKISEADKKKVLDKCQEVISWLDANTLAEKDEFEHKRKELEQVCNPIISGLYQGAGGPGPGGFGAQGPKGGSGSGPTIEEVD

binding result [1]: binds
binding result [2]: binds
B1: C terminus of Hsc70-interacting protein (CHIP) (enzyme, human, UniProt Q9UNE7 1-303, looked up)
chain: MKGKEEKEGGARLGAGGGSPEKSPSAQELKEQGNRLFVGRKYPEAAACYGRAITRNPLVAVYYTNRALCYLKMQQHEQALADCRRALELDGQSVKAHFFLGQCQLEMESYDEAIANLQRAYSLAKEQRLNFGDDIPSALRIAKKKRWNSIEERRIHQESELHSYLSRLIAAERERELEECQRNHEGDEDDSHVRAQQACIEAKHDKYMADMDELFSQVDEKRKKRDIPDYLCGKISFELMREPCITPSGITYDRKDIEEHLQRVGHFDPVTRSPLTQEQLIPNLAMKEVIDAFISENGWVEDY
notes: human CHIP (hCHIP), Entrez Gene code 10273, cloned in pPROEX HTa; Homodimer, seen as an asymmetric triangular dimer in all reconstructions; also called hCHIP; source: E. coli, induced at 30 °C (4 h), purified (Ni-NTA, TEV cleavage, second Ni-NTA, Superdex 200)
